Patent US20220356229A1

Target: SARS-CoV-2 full length Spike protein, wild type, expressed on the surface of transiently transfected CHO cells (SARS-CoV-2), P0DTC2
Settings: remark: other sources report otherwise

B1: antibody 262 (antibody, V domains shown)
VH: QVQLVESGGGVVQPGRSLRLSCAASGFTFSSYAMHWVRQAPGKGLEWVAVISYDGSNKYYADSVKGRFTISRDNSKNTLYLQMNSLRAEDTAVYYCARDGGELLWFGELDYYGMDVWGQGTTVTVSS
VL: SYELTQPSSVSVSPGQTARITCSGDVLAKKYARWFQQKPGQAPVLVIYKDSERPSGIPERFSGSSSGTTVTLTISGAQVEDEADYYCYSAADNNRGVFGGGTKLTVL
- median fluorescence intensity, fold over isotype control (fold over isotype): 0.89
